For series [1] the following is noted: cited from earlier work.
Series [2] in a line: Phase 1b study (Example 10): bemarituzumab serum concentration / PK with CAPOX with or without nivolumab. The format is in vivo, human. The note with it: for Cycle 1 Cmax (median) / Cycle 1 Ctrough (median) / Cycle 2 Cmax (median) / Cycle 2 Ctrough (median): serum, preliminary. An excerpt:
The actual sample collection date and time (24-hour clock time) of each sample will be recorded.

Series [3] can be described thus: Phase 1b study (Example 10): safety of bemarituzumab with CAPOX with or without nivolumab. The format is in vivo, human. As to conditions: cohort A (DL1 & DL2) and cohort C; based on the known bemarituzumab safety profile.
The nature of series [4]: Pharmacokinetics after intravenous administration in cynomolgus monkeys. It is filed as in vivo. Here is the method: (§1) The half-life was dose-dependent, ranging from 0.8 days at the lowest doses (1 to 1.5 mg/kg) to at least 8 days at the highest doses (100 to 150 mg/kg) tested in cynomolgus monkeys. […] Target-mediated clearance was saturable, marked by dose-proportional increases in exposure at doses exceeding this level when dosed at weekly intervals. […] As such, it is contemplated that in some embodiments, subjects treated with bemarituzumab are not pregnant.

Series [5] can be described thus: Embryo-fetal development with prenatal and postnatal development study. The format is in vivo. The note with it: all dose levels (5 to 100 mg/kg/doses). Here is the method:
as §1

Another series addresses T1, FGFR2b (Homo sapiens, UniProt P21802).
T1 construct: in cell culture in FGFR2b overexpressing gastric and breast cancer cell lines; endogenous in cells
In words: FGF ligand-stimulated FGFR2b phosphorylation and receptor level in cell culture. The format is cell-based.

The test system of series [6] is FGFR2b overexpressing gastric and breast cancer cell lines. The series can be described thus: Cell proliferation in cell culture. The note with it: FGF ligand-stimulated. It is filed as cell-based.
Series [7] has as its system FGFR2b overexpressing gastric and breast xenograft models. The series can be described thus: Tumor xenograft models. The format is in vivo.
In another series the test system is FGF23 signaling. The series can be described thus: FGF23 signaling. The note with it: in contrast to the FGFR tyrosine kinase inhibitors.
Another series addresses FcγRIIIa (Homo sapiens, UniProt P08637). The series can be described thus: Affinity for Fc receptor. The format is binding. The note with it: compared to the fucosylated molecule. The text has this:
In the method of some embodiments, the anti-FGFR2 antibody comprises the heavy chain of SEQ ID NO: 2 and the light chain of SEQ ID NO: 3, and is afucosylated.

In a further series the test system is FGFR substrate-2 (FRS2). In words: Downstream signaling: phosphorylation of FGFR substrate-2 (FRS2). It is filed as cell-based. Here is the method:
The effect on downstream signaling was measured by examining phosphorylation of a protein that is directly phosphorylated by the FGFR2 protein, FGFR substrate-2 (FRS2).

Series [8] can be described thus: Clinical safety of bemarituzumab (earlier studies, with mFOLFOX6). The format is in vivo, human. The text has this: Corneal events are very common with bemarituzumab with the most common adverse event being dry eye. Although nearly all of the events have been non-serious, grade 3 events such ulcerative keratitis and punctate keratitis which can lead to decreases in visual acuity have been observed. The majority of the corneal events typically resolve with treatment interruption or discontinuation and standard of care interventions for the corneal events. As such, it is contemplated that in some embodiments, subjects treated with bemarituzumab are further treated with ocular lubricants. The ocular lubricants may be administered prophylactically to reduce the risk of corneal events.

The conditions of series [9]: treatment with bemarituzumab, versus FGFR TKIs; cited from earlier work.
The mark [10] stands for this setting: Cohort A DL1: 15 mg/kg IV Q3W + 7.5 mg/kg C1D8 + CAPOX, N=6.
[11] abbreviates: Cohort A DL2: 22 mg/kg IV Q3W + 11 mg/kg C1D8 + CAPOX, N=4.
Setting [12] is: Cohort C: 22 mg/kg IV Q3W + 11 mg/kg C1D8 + CAPOX + Nivo, N=6.

“Also recorded” adds a separate entry of the source. Read-outs that look alike come from different tables or passages of the source.

A word on the half-life: it is the time needed for the level to fall by half in the phase considered.

T1 sequence (P21802 22-822 isoform P21802-3 limits assumed): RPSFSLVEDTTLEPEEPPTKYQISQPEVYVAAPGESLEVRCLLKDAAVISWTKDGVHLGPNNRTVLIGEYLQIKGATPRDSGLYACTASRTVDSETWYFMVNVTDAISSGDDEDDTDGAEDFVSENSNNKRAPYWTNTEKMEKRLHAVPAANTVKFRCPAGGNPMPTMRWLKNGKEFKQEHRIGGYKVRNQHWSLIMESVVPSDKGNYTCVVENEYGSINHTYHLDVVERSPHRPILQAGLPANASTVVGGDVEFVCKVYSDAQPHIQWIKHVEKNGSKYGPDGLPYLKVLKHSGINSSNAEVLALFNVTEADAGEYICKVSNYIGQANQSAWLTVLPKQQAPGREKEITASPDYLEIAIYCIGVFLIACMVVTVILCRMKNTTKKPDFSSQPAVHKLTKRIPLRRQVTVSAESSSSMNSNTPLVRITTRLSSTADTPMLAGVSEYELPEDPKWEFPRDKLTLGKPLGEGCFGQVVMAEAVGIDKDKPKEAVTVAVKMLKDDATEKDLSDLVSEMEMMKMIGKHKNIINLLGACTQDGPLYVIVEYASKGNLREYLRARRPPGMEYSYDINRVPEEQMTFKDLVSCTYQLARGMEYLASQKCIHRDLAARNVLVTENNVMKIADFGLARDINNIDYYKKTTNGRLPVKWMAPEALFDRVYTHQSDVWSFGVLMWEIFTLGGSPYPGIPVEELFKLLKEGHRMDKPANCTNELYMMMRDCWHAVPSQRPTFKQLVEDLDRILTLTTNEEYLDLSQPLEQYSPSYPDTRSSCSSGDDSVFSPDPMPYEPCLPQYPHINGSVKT
Chain of FcγRIIIa (P08637 17-254): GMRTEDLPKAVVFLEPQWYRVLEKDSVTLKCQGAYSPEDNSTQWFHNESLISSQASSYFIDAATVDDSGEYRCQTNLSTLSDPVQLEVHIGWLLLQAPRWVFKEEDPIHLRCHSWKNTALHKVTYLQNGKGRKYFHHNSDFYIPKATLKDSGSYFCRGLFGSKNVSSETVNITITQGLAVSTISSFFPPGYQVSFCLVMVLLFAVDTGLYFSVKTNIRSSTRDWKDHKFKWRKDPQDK

As to `CCCCCOC(=O)Nc1nc(=O)n([C@@H]2O[C@H](C)[C@@H](O)[C@H]2O)cc1F` [capecitabine], in [1] ((30%)), the “most common side effects” value was “diarrhea, hand-and-foot syndrome, nausea, vomiting, abdominal pain, fatigue/weakness, and hyperbilirubinemia”.

Regarding `O=C1[O][Pt]2([NH][C@@H]3CCCC[C@H]3[NH]2)[O]C1=O` [oxaliplatin], the “most common side effects” value in series [1] ((40%)) is “peripheral sensory neuropathy, neutropenia, thrombocytopenia, anemia, nausea, increase in transaminases and alkaline phosphatase, diarrhea, emesis, fatigue, and stomatitis”.

As for bemarituzumab, in [2] (CAPOX background), the “drug-drug interaction (DDI) with respect to PK between bemarituzumab and nivolumab” value was “No drug-drug interaction”. Besides, in series [2] (setting [10]), the “Cycle 1 Cmax (median)” value is 360.8 µg/mL, the “Cycle 1 Ctrough (median)” value was 111.5 µg/mL, the “Cycle 2 Cmax (median)” value was determined as 457.0 µg/mL and the “Cycle 2 Ctrough (median)” value amounted to 86.6 µg/mL. For the same compound, in [2] (setting [11]), the “Cycle 1 Cmax (median)” value is 333.8 µg/mL, the “Cycle 1 Ctrough (median)” value is 125.9 µg/mL, the “Cycle 2 Cmax (median)” value came out at 655.8 µg/mL and the “Cycle 2 Ctrough (median)” value is 71.1 µg/mL. In addition, in series [2] (setting [12]), the “Cycle 1 Cmax (median)” value turned out to be 381.4 µg/mL, the “Cycle 1 Ctrough (median)” value came to 130.1 µg/mL, the “Cycle 2 Cmax (median)” value came out at 549.8 µg/mL and the “Cycle 2 Ctrough (median)” value turned out to be 133.0 µg/mL. Also, the safety findings entry in [3] is “no new safety findings”. Besides, in series [4] (highest doses (100 to 150 mg/kg) tested), the half-life entry is recorded as “at least 8 days”. Further, the half-life in series [4] (lowest doses (1 to 1.5 mg/kg)) is 19 h. Besides, the PK behaviour result in series [4] (rats and cynomolgus monkeys) is listed as “dose-dependent, nonlinear PK”. Also, the “reproductive and developmental toxicities” value in [5] is “Significant reproductive and developmental toxicities were observed at all dose levels”. For the same compound, the FGFR2b receptor level result with FGFR2b was “downregulates the receptor”. Further, the FGFR2b phosphorylation result with FGFR2b (FGF ligand-stimulated, FGFR2b overexpressing gastric and breast cancer cell lines) is “inhibits; also recorded: blocks”. Moreover, the cell proliferation result in series [6] was “inhibits”. Besides, the tumor growth entry in [7] (FGFR2b overexpressing gastric and breast xenograft models) is given as “inhibits tumor growth”. In series [7] (FGFR2b-overexpressing human tumor xenograft models, well-tolerated doses), the anti-tumor activity result is “dose-related anti-tumor activity with regression and complete responses”. Moreover, the FGF23 signaling entry with FGF23 signaling is “does not inhibit”. Moreover, the “affinity for the Fc receptor FcγRIIIa” value in the series with FcγRIIIa is “higher affinity”. The “downstream signaling (FRS2 phosphorylation)” value in the series on FGFR substrate-2 (FRS2) is “inhibits downstream signaling”. Also, in series [8] (human, in vivo), the safety profile result is on record as “acceptable safety profile”. Moreover, in [8] (in combination with mFOLFOX6), the identified risks result was “corneal toxicity, infusion related reactions, gastrointestinal toxicity (stomatitis and mucosal inflammation), nail toxicity and increase in AST and ALT”. For the same compound, in [9], the hyperphosphatemia result was “not associated with the hyperphosphatemia”.

The values above are taken from patent US20260250397A1, “TREATMENT OF GASTRIC CANCER” (AMGEN INC., priority 2022, published 2026).
